Measurements taken from patent US20120251547A1 (Amgen, published 2012).

Assays:
[1] = target: T1, huIL-17RA-FLAG-polyHis (human, UniProt Q96F46 33-320); experiment: binning; IL-17RA held by bead mAb C
T1 construct: also called IL-17RA-FLAG-pHis; wild-type IL-17RA
Description: (§1) The method employed the Bio-Plex Workstation and software (BioRad, Hercules, Calif.), as well as reagents from Luminex® Corp. (Austin, Tex.). […] The mouse-anti-human IgG coating was evaluated and the beads quantified by FACS. Each bead code was separately incubated with 10 ul of anti-IL-17RA antibody for 1 hour at room temperature and then washed. The beads were pooled and then dispensed to a 96-well filter plate (Millipore, Billerica, Mass., product #MSBVN1250). […] The PE-tagged monovalent antibody will detect the presence of the second mAb added to the well, but not the first mAb captured by the monovalent mouse-anti-human IgG antibody. Beads were resuspended in 120u1 PBSAT and at least 100 events/bead code were collected on the Bio-Plex workstation as per the manufacturer's recommended protocol.

[2] = target: T1, huIL-17RA-FLAG-polyHis; experiment: binning; IL-17RA held by bead mAb D
Description: as §1

[3] = target: T1, huIL-17RA-FLAG-polyHis; experiment: binning; IL-17RA held by bead mAb M
Description: (§2) The method employed the Bio-Plex Workstation and software (BioRad, Hercules, Calif.), as well as reagents from Luminex® Corp. (Austin, Tex.). The manufacturers' basic protocols were followed except where noted below (see www.bio-rad.com and www.luminexcorp.com for details). […] The mouse-anti-human IgG coating was evaluated and the beads quantified by FACS. Each bead code was separately incubated with 10 ul of anti-IL-17RA antibody for 1 hour at room temperature and then washed. The beads were pooled and then dispensed to a 96-well filter plate (Millipore, Billerica, Mass., product #MSBVN1250). […] The PE-tagged monovalent antibody will detect the presence of the second mAb added to the well, but not the first mAb captured by the monovalent mouse-anti-human IgG antibody. Beads were resuspended in 120u1 PBSAT and at least 100 events/bead code were collected on the Bio-Plex workstation as per the manufacturer's recommended protocol.

[4] = target: T1, huIL-17RA-FLAG-polyHis; experiment: binning; IL-17RA held by bead mAb I
Description: as §1

[5] = target: T1, huIL-17RA-FLAG-polyHis; experiment: binning; IL-17RA held by bead mAb N
Description: as §2

[6] = target: T1, huIL-17RA-FLAG-polyHis; experiment: binning; IL-17RA held by bead mAb Q
Description: as §1

[7] = target: T2, chimera K; experiment: Bio-Plex titration on His-captured chimera;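 further: binding of anti-IL-17RA antibodies (4-fold titration across about 5 logs, 1 h) to His-captured IL-17RA chimeras on multiplexed beads, MFI read as percent of maximal wild-type human IL-17RA signal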
T2 construct: human IL-17RA extracellular domain with mouse Domains A and F; also called Construct K
Description: (§3) Twelve bead codes of pentaHis-coated beads (Qiagen, Valencia, Calif.; see wwwl.qiagen.com) were used to capture histidine-tagged protein. The 12 bead codes allowed the multiplexing of 11 chimeric and the wild type human IL-17RA.
(§4) The beads were washed as per the manufacturer's protocol and the 12 bead set was pooled and aliquoted into 2 or 3 columns of a 96-well filter plate (Millipore, Billerica, Mass., product #MSBVN1250) for duplicate or triplicate assay points, respectively. 100 ul anti-IL-17RA antibodies in 4-fold dilutions were added to the wells, incubated for 1 hour at room temperature, and washed. […] Beads were resuspended in 1% BSA, shaken for 3 minutes, and read on the Bio-Plex workstation. Antibody binding to IL-17RA chimeric protein was compared to antibody binding to the human IL-17RA wild-type from the same pool. A titration of antibody over approximately a 5 log scale was performed. Median Fluorescence Intensity (MFI) of chimeric proteins was graphed as a percent of maximum wild-type human IL-17RA signal.

[8] = target: T3, chimera M; experiment: Bio-Plex titration on His-captured chimera;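 further: binding of anti-IL-17RA antibodies (4-fold titration across about 5 logs, 1 h) to His-captured IL-17RA chimeras on multiplexed beads, MFI read as percent of maximal wild-type human IL-17RA signal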
T3 construct: human IL-17RA extracellular domain with mouse Domains C and F; also called Construct M
Description: as §3, §4

[9] = target: T4, chimera F; experiment: Bio-Plex titration on His-captured chimera;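 further: binding of anti-IL-17RA antibodies (4-fold titration across about 5 logs, 1 h) to His-captured IL-17RA chimeras on multiplexed beads, MFI read as percent of maximal wild-type human IL-17RA signal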
T4 construct: human IL-17RA extracellular domain with mouse Domain F; column head 229-319; also called Construct F
Description: as §3, §4

[10] = target: T5, cynomolgus IL-17RA, on cells (cynomolgus); experiment: FACS competition: non-clonal supernatant inhibiting biotin-huIL-17A (competitor) binding to cyno IL-17RA+ CHO cells
T5 construct: whole, on cells; also called CHO-cynoIL-17RA; cyno IL-17RA+ CHO cells
Description: The anti-IL-17RA antibodies were characterized. Non-clonal hybridoma supernatants were prepared in volumes of 1-2 mls (the Ig concentrations were not determined for these supernatants).

[11] = target: human IL-17RA, full-length, on cells (human, UniProt Q96F46 33-866); experiment: cell-based or functional assay
[12] = target: T6, chimera J; experiment: Bio-Plex titration on His-captured chimera;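 further: binding of anti-IL-17RA antibodies (4-fold titration across about 5 logs, 1 h) to His-captured IL-17RA chimeras on multiplexed beads, MFI read as percent of maximal wild-type human IL-17RA signal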
T6 construct: human IL-17RA extracellular domain with mouse Domains D and E; column head D+E; also called Construct J
Description: as §3, §4

[13] = target: T7, chimera D; experiment: Bio-Plex titration on His-captured chimera
T7 construct: human IL-17RA extracellular domain with mouse Domain D; column head 176-197; also called Construct D
Description: as §3, §4
T7 IL-17RA extracellular domain with FLAG-polyHis tag: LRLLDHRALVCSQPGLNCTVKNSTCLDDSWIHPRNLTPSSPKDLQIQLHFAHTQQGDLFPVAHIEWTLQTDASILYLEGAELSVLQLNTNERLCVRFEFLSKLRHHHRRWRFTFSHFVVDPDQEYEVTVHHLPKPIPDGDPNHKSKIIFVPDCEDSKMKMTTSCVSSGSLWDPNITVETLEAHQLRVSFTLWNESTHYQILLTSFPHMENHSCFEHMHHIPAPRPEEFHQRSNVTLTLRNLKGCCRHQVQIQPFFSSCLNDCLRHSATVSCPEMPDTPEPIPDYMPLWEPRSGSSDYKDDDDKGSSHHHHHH

[14] = target: T8, muIL-17RA-FLAG-polyHis (mouse, UniProt Q60943 32-322); experiment: Bio-Plex, His-tagged muIL-17RA on pentaHis beads, antibody titration
T8 construct: also called mouse IL-17RA; mu WT

[15] = target: T4, chimera F; experiment: Bio-Plex titration on His-captured chimera; cell not bold in the scan
Description: as §3, §4

[16] = target: T2, chimera K; experiment: Bio-Plex titration on His-captured chimera; cell bold in heavy box (shaded: lost binding)
Description: as §3, §4

[17] = target: T9, chimera L; experiment: as above
T9 construct: human IL-17RA extracellular domain with mouse Domains B and F; B+F; also called Construct L
Description: as §3, §4

[18] = target: T3, chimera M; experiment: as above
Description: as §3, §4

[19] = target: T1, huIL-17RA-FLAG-polyHis; experiment: SPR Biacore 3000, mAb captured on anti-human IgG CM4 chip, soluble huIL-17RA-FLAG-polyHis as analyte, 25 C, 1:1 model
Description: In vitro binding of IL-17RA mAbs was assayed. The binding affinities of IL-17RA antibodies were measured by surface plasmon resonance using a Biacore 3000® instrument by standard methods known in the art. Antibody candidates were captured on CM4 chips derivatized with goat anti-human IgG (H+ L) antibody (Jackson Immuno Research, Bar Harbor, Me.). A CM4 chip coated with goat anti-human IgG (H+ L) antibody but without captured antibody was used as a reference.
Experiments were conducted at 25° C. using a 50 uL/min flow rate. Data was fit to a 1:1 Model+Local Rmax using BIAeval Software® (v4.1).

T8 sequence (Q60943 32-322 limits assumed): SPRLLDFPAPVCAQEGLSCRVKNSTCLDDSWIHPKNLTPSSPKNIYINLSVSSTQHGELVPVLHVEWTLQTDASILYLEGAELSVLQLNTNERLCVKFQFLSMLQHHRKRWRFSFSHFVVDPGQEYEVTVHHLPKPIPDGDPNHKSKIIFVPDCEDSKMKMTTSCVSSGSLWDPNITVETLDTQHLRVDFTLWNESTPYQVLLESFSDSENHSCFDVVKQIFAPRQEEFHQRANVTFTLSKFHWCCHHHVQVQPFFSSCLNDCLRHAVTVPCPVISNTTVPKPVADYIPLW

B1: AMH21/AML21 (antibody, IgG2, V domains shown)
VH: EVQLVESGGGSVQPGGSLRLSCAASGFTFSSYSMNWVRQAPGKGLEWVSIISSRSSIIHYADSVKGRFTISRDNAKNSLYLQMNSLRDEDTAVYYCARPKVGGGMDVWGQGTTVTVSS
VL: DIQMTQSPSSLSASVGDRVTITCRASQGISNYLAWYQQKPGKFPELLIYAASTLQSGVPSRFSGSGSGTDFTLTISSLQPEDVATYYCQKYNRAPFTFGPGTKVDIK
notes: human mAb from IgG2 XenoMouse mice; also called AM-21; antibody Q
normalized MFI [1]: 4770
normalized MFI [2]: 1380
normalized MFI [3]: 44.5
normalized MFI [4]: 2.5
normalized MFI [5]: 39
normalized MFI [6]: 100
EC50 [7]: 0.017 nM
EC50 [8]: 0.035 nM
EC50 [9]: 0.026 nM
MFI [10]: 6

B2: AMH20/AML20 (antibody, IgG2, V domains shown)
VH: EVQLVESGGGLVQPGGSLRLSCAASGFTFSSYSMNWVRQAPGKGLEWVSFISARSSTIYYADSVKGRFTISRDNAKNSLYLQMNSLRDEDTAVYYCARPKVGGGMDVWGQGTTVTVSS
VL: DIQMTQSPSSLSASVGDRVTITCRASQGISNYLAWYQQKPGKFPELLIYAASTLQSGVPSRFSGSGSGTDFTLTISSLQPEDVATYYCQKYNRAPFTFGPGTKVDIK
notes: human mAb from IgG2 XenoMouse mice; also called AM-20; antibody R
normalized MFI [1]: 2990
normalized MFI [2]: 783
normalized MFI [3]: 24
normalized MFI [4]: 58
normalized MFI [5]: 24
normalized MFI [6]: 60
EC50 [7]: 0.022 nM
EC50 [8]: 0.04 nM
EC50 [9]: 0.029 nM

B3: AMH18/AML18 (antibody, IgG2, V domains shown)
VH: QVQLVQSGAEVKKPGASVKVSCKASGYSFTDYYMHWVRQAPGQGLEWMGWMHPNSGGTDLAQRFQGRVTMTRDTSISTAYMELSRLRSDDTAVYYCARGGYCSTLSCSFYWYFDLWGRGTLVTVSS
VL: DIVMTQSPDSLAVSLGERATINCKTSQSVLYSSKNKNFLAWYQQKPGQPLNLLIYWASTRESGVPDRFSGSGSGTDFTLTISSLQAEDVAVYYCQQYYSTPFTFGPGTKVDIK
notes: human mAb from IgG2 XenoMouse mice; also called AM-18; antibody G
IL-17A/HFF IC50 [11]: 0.33 nM
IL-17A/lung fibroblast IC50 [11]: 0.081 nM
IL-17F/HFF IC50 [11]: 0.073 nM
normalized MFI [1]: 354
normalized MFI [2]: 344
normalized MFI [3]: 2380
normalized MFI [4]: 6890
normalized MFI [5]: 3230
normalized MFI [6]: 7850
EC50 [12]: 0.064 nM
EC50 [13]: 0.059 nM
binding result [14]: no binding
EC50 [15]: 3100 nM
EC50 [16]: 31.3 nM
EC50 cell printed as zero (binding ablated) [17]: 0 nM
EC50 [18]: 1.55 nM
Ka [19]: 1.01e+08 M⁻¹
Kd [19]: 9.88 nM
koff [19]: 0.00101 s⁻¹
kon [19]: 102000 M⁻¹ s⁻¹
